Earlier results as cited in article PMC10552185.

Target: RegA (Dictyostelium discoideum) (UniProt Q23917)
Sequence (Q23917 whole entry): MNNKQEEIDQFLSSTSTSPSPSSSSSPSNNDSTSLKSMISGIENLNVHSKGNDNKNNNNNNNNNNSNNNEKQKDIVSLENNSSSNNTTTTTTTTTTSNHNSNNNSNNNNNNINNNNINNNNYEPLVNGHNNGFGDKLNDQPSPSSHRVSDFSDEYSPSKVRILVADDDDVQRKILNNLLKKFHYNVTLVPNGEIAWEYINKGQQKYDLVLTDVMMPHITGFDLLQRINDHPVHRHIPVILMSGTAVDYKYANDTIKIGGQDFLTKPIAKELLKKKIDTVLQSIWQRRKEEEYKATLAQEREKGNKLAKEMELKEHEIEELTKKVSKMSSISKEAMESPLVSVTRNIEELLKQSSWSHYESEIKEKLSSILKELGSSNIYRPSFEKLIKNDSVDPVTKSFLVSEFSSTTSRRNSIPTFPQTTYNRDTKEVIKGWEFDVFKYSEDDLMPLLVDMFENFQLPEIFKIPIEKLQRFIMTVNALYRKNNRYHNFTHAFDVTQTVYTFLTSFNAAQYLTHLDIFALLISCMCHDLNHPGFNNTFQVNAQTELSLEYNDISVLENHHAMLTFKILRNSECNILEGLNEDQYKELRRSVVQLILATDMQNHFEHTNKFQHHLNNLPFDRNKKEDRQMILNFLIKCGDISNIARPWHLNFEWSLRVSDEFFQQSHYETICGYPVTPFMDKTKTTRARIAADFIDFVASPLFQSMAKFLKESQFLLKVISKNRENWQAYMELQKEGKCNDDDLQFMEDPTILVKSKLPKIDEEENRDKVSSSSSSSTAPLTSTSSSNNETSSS

Kd: 100 nM
Substance: PKA RIα (from UniProt P10644)
